Consider 3 molecules from patent US20150064184A1 (ARMAGEN TECHNOLOGIES, published 2015).

Assay [1] deals with T1, human insulin receptor extracellular domain (HIR ECD) (human, UniProt P06213 28-956, limits assumed).
T1 construct: extracellular domain; The ECD was plated on 96-well dishes for the ELISA
The assay can be described thus: ELISA, HIR ECD plated (second experiment).

Assay [2] deals with T1, human insulin receptor extracellular …. The assay can be described thus: ELISA, HIR ECD plated on Nunc-Maxisorb wells, detected with biotinylated anti-human IgG. As to the method:
(§1) The affinity of the fusion protein for the HIR extracellular domain (ECD) was determined with an ELISA. CHO cells permanently transfected with the HIR ECD were grown in serum free media (SFM), and the HIR ECD was purified with a wheat germ agglutinin affinity column, as previously described in Coloma et al. (2000) Pharm Res, 17:266-274. The HIR ECD was plated on Nunc-Maxisorb 96 well dishes and the binding of the HIR Ab, or the HIR Ab-ASA fusion protein, to the HIR ECD was detected with a biotinylated goat anti-human IgG (H+L) secondary antibody, followed by avidin and biotinylated peroxidase (Vector Labs, Burlingame, Calif.). […] The MW of the HIR Ab is 150 kDa, and the MW of the HIR Ab-ASA fusion protein is 288 kDa.
(In general: In an ELISA, binding on a coated surface is turned into a signal by an enzyme label.)

For assay [3] the target is unchanged. Description: ELISA, HIR ECD plated, detected with biotinylated anti-human IgG.
Assay [4] has the same target. Description: ELISA, HIR ECD plated; normalised for a MW of 150 kDa. As to the method:
as §1

For assay [5] the target is unchanged. The assay can be described thus: ELISA, HIR ECD plated; normalised for a MW of 288 kDa. As to the method:
as §1

B1: chimeric HIRMAb (chimeric monoclonal antibody against the human insulin receptor) (antibody, human IgG1, kappa)
heavy: not shown
light: DIQMTQSPSSLSASLGERVSLTCRASQDIGGNLYWLQQGPDGTIKRLIYATSSLDSGVPKRFSGSRSGSDYSLTISSLESEDFVDYYCLQYSSSPWTFGGGTKMEIKRTVAAPSVFIFPPSDEQLKSGTASVVCLLNNFYPREAKVQWKVDNALQSGNSQESVTEQDSKDSTYSLSSTLTLSKADYEKHKVYACEVTHQGLSSPVTKSFNRGEC
notes: MW 150 kDa; also called HIR Ab; chimeric HIR Ab
Regarding B1, the concentration for a half-maximal effect (EC50) – broadly, the concentration needed to bring the measured effect to its halfway point – was determined as 0.25 nM in assay [1], 0.035 µg/mL in assay [2], 0.77 nM in assay [3] and 0.23 nM in assay [4].

B2: HIR Ab-GUSB fusion protein (human GUSB fused to the carboxyl terminus of the HIR Ab heavy chain) (antibody, human IgG1, kappa)
heavy: not shown
light: DIQMTQSPSSLSASLGERVSLTCRASQDIGGNLYWLQQGPDGTIKRLIYATSSLDSGVPKRFSGSRSGSDYSLTISSLESEDFVDYYCLQYSSSPWTFGGGTKMEIKRTVAAPSVFIFPPSDEQLKSGTASVVCLLNNFYPREAKVQWKVDNALQSGNSQESVTEQDSKDSTYSLSSTLTLSKADYEKHKVYACEVTHQGLSSPVTKSFNRGEC
notes: range 23-633; also called HIRMAb-GUSB fusion protein; pCD-HC-GUSB plus pCD-LC product
In turn, B2 displayed a concentration giving a half-maximal response (EC50) in assay [3] of 0.81 nM.

B3: HIRMAb-ASA fusion protein (HIR Ab fused at the carboxyl terminus of each heavy chain to mature human arylsulfatase A) (antibody, human IgG1, kappa)
heavy: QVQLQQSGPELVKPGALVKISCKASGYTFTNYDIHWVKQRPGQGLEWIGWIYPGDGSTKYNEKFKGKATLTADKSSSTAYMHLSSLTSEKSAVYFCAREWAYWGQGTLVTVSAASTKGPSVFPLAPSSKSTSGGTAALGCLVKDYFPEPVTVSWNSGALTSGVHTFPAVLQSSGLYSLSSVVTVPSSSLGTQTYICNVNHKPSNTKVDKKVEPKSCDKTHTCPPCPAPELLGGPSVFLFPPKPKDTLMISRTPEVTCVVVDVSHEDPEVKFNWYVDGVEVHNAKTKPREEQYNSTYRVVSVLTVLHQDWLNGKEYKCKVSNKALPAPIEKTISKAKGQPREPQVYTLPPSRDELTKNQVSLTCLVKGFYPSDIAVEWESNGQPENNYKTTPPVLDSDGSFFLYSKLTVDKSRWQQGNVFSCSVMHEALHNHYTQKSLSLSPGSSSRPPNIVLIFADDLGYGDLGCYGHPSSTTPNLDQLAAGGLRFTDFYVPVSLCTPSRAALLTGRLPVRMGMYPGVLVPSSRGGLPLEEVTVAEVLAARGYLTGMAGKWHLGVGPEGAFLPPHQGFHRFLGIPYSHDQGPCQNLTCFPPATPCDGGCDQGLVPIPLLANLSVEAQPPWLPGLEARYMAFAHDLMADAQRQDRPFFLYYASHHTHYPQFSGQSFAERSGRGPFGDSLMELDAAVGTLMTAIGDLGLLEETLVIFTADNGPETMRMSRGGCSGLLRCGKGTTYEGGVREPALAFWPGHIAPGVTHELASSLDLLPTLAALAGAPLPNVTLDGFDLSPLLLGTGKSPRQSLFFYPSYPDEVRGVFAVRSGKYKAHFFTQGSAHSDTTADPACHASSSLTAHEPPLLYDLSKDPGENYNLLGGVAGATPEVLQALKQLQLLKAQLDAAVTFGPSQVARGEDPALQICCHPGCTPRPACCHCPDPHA
light: DIQMTQSPSSLSASLGERVSLTCRASQDIGGNLYWLQQGPDGTIKRLIYATSSLDSGVPKRFSGSRSGSDYSLTISSLESEDFVDYYCLQYSSSPWTFGGGTKMEIKRTVAAPSVFIFPPSDEQLKSGTASVVCLLNNFYPREAKVQWKVDNALQSGNSQESVTEQDSKDSTYSLSSTLTLSKADYEKHKVYACEVTHQGLSSPVTKSFNRGEC
modifications: Cys-515 of SEQ ID NO 10 undergoes post-translational conversion to formylglycine (inferred by the filing from retained enzyme activity)
notes: Antibody-enzyme fusion made in CHO cells and purified on protein A. Hetero-tetramer with an estimated MW of 288 kDa; also called HIR Ab-ASA fusion protein; HIR Ab-ASA fusion antibody
B3: the concentration giving a half-maximal response (EC50) was 0.106 µg/mL in assay [2] and 0.34 nM in assay [5].
